Measurements: publication PMC8274835

What was measured:
Assay in all cases: co-IP; mCherry-Rac1 transiently expressed in HEK293T for 16 h, precipitated with the RFP-TRAP kit (Chromotek); endogenous RhoGDI by Western blot, quantified (n = 3)
mCherry-Rac1 F28L = mCherry-Rac1 F28L (UniProt P63000)
mCherry-Rac1 G12V = mCherry-Rac1 G12V (UniProt P63000)
mCherry-Rac1 P29S = mCherry-Rac1 P29S (UniProt P63000)
mCherry-Rac1 Y64F = mCherry-Rac1 Y64F (UniProt P63000)

Measured: reduction of co-precipitated GDI against Rac1 WT

RhoGDI (endogenous, HEK293T) (from UniProt P52565 1-204) (natural protein)
50%: all assays above
